This is an account of results in patent US20250011363A1, “OPTIMIZED SHORTENED PEPTIDE THAT BINDS TO ACETYLCHOLINE RECEPTOR, AND USE THEREOF” (SKINMED CO., LTD., priority 2021, published 2025).

This experiment concerns the target acetylcholine receptor (Homo sapiens, UniProt P02708). The experiment is described as follows: SPR binding affinity (RU) of optimized 5mer/6mer/7mer peptides, Examples 6-7. The settings on record: SPR, Resonance Units, peptides tested at 10 μM. In a few lines:
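Using surface plasmon resonance, binding to the acetylcholine receptor was measured for each sequence at a single 10 μM concentration. Values are response units.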
Background: In SPR one partner is held on a chip, and binding of the other changes the refractive index at the surface.

acetylcholine receptor, sequence (P02708 21-457): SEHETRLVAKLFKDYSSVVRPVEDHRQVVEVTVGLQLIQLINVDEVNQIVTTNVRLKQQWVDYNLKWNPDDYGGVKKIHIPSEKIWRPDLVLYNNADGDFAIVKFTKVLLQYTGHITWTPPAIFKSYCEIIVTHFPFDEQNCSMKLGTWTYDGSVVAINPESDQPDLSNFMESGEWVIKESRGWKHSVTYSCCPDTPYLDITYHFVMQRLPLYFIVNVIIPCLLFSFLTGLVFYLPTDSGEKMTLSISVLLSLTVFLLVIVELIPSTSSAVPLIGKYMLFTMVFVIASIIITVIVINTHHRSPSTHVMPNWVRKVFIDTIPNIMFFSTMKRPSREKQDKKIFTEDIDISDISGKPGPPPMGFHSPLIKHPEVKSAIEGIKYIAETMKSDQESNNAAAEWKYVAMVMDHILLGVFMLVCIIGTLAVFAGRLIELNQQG

Regarding 6mer-2-599 (RRRYRK), for the setting “6mer-2 Top sequence”, the Binding affinity is 121 Ru.
Take 6mer-2-600 (RSQLKK): under “6mer-2 Top sequence”, the Binding affinity is given as 139 Ru.
For 6mer-2-601 (KNSHKK), the Binding affinity (6mer-2 Bottom sequence) turned out to be 25 Ru.
As for 6mer-2-602 (RNTPKR), the Binding affinity (6mer-2 Bottom sequence) was 24 Ru.
On to 6mer-2-603 (KFHARR), for which the Binding affinity (6mer-2 Bottom sequence) came to 32 Ru.
For 6mer-2-604 (KEPIRK), the Binding affinity (6mer-2 Bottom sequence) was found to be 16 Ru.
In the case of 6mer-2-605 (KNCGKK), the Binding affinity (6mer-2 Bottom sequence) is on record as 17 Ru.
Same read-out and setting: under 6mer-2-606 (RKPFRR) stands 15 Ru; under 6mer-2-607 (KKWVKR), 31 Ru; under 6mer-2-608 (RCNHKK), 32 Ru.
As for 6mer-2-609 (RDSDRR), the Binding affinity (6mer-2 Bottom sequence) was 24 Ru.
With 6mer-2-610 (RKNPKR), for the setting “6mer-2 Bottom sequence”, the Binding affinity was determined as 32 Ru.
As for 6mer-2-611 (RIKMRR), the Binding affinity (6mer-2 Bottom sequence) is recorded as 22 Ru.
In the case of 6mer-2-612 (RDCVRK), the Binding affinity (6mer-2 Bottom sequence) stood at 17 Ru.
For the substance 6mer-2-613 (KAANRR), the Binding affinity (6mer-2 Bottom sequence) is listed as 18 Ru.
The same measure, in the same setting: to 6mer-2-614 (KAWIRR) belongs 19 Ru; to 6mer-2-615 (KDNGRK), 27 Ru; to 6mer-2-616 (REPHRK), 26 Ru.
With 6mer-2-617 (RCNGRR), the Binding affinity (6mer-2 Bottom sequence) came to 32 Ru.
For the substance 6mer-2-618 (KHHKKR), the Binding affinity (6mer-2 Bottom sequence) is given as 12 Ru.
6mer-2-619 (RPPDRR): the Binding affinity (6mer-2 Bottom sequence) was found to be 26 Ru.
In the case of 6mer-2-620 (RHTGRR), under “6mer-2 Bottom sequence”, the Binding affinity worked out at 33 Ru.
The same measure, in the same setting: to 6mer-2-621 (RHEPKR) belongs 32 Ru; to 6mer-2-622 (RYTNKR), 13 Ru.
As to 6mer-2-623 (KHAHRR), under “6mer-2 Bottom sequence”, the Binding affinity came to 13 Ru.
Take 6mer-2-624 (KPPIRK): the Binding affinity (6mer-2 Bottom sequence) was 33 Ru.
As to 6mer-2-625 (RFPDKK), the Binding affinity (6mer-2 Bottom sequence) came out at 33 Ru.
Turning to 6mer-2-626 (KNSEKK), the Binding affinity (6mer-2 Bottom sequence) is recorded as 33 Ru.
For the substance 6mer-2-627 (KKTARR), the Binding affinity (6mer-2 Bottom sequence) was 33 Ru.
On to 6mer-2-628 (RKSFKR), for which the Binding affinity (6mer-2 Bottom sequence) was determined as 30 Ru.
As for 6mer-2-629 (RFCWKK), the Binding affinity (6mer-2 Bottom sequence) is given as 32 Ru.
With 6mer-2-630 (RYAFRR), where the note is “6mer-2 Bottom sequence”, the Binding affinity was found to be 27 Ru.
Turning to 6mer-2-631 (KYCMKR), under “6mer-2 Bottom sequence”, the Binding affinity is listed as 16 Ru.
For the substance 6mer-2-632 (KYDIKR), for the setting “6mer-2 Bottom sequence”, the Binding affinity came out at 12 Ru.
In the case of 6mer-2-633 (KYAVKR), the Binding affinity (6mer-2 Bottom sequence) came out at 17 Ru.
On to 6mer-2-634 (RYEHRK), for which the Binding affinity (6mer-2 Bottom sequence) is on record as 33 Ru.
In the case of 6mer-2-635 (KECVRR), the Binding affinity (6mer-2 Bottom sequence) is on record as 11 Ru.
Turning to 6mer-2-636 (KMAPKR), the Binding affinity (6mer-2 Bottom sequence) is on record as 21 Ru.
For the substance 6mer-2-637 (RPPVRK), for the setting “6mer-2 Bottom sequence”, the Binding affinity amounted to 32 Ru.
Take 6mer-2-638 (RCWAKR): the Binding affinity (6mer-2 Bottom sequence) came out at 30 Ru.
Regarding 6mer-2-639 (KHTVKK), for the setting “6mer-2 Bottom sequence”, the Binding affinity was found to be 23 Ru.
Consider 6mer-2-640 (KFKKKR), for which the Binding affinity (6mer-2 Bottom sequence) came to 21 Ru.
As to 6mer-2-641 (REEFRR), for the setting “6mer-2 Bottom sequence”, the Binding affinity is 12 Ru.
With 6mer-2-642 (KTENKK), for the setting “6mer-2 Bottom sequence”, the Binding affinity worked out at 16 Ru.
As to 6mer-2-643 (KANPKK), the Binding affinity (6mer-2 Bottom sequence) worked out at 12 Ru.
Take 6mer-2-644 (REPNRR): the Binding affinity (6mer-2 Bottom sequence) is 12 Ru.
As to 6mer-2-645 (RIKVKK), the Binding affinity (6mer-2 Bottom sequence) is 15 Ru.
Regarding 6mer-2-646 (RAAPRR), the Binding affinity (6mer-2 Bottom sequence) turned out to be 32 Ru.
For 6mer-2-647 (KTEPKR), the Binding affinity (6mer-2 Bottom sequence) is given as 19 Ru.
Turning to 6mer-2-648 (RYPDRK), under “6mer-2 Bottom sequence”, the Binding affinity was 23 Ru.
For the substance 6mer-2-649 (KFDVRK), the Binding affinity (6mer-2 Bottom sequence) is listed as 31 Ru.
Regarding 6mer-2-650 (RFKARK), for the setting “6mer-2 Bottom sequence”, the Binding affinity came to 18 Ru.
6mer-2-651 (KNADRR): for the setting “6mer-2 Bottom sequence”, the Binding affinity was 21 Ru.
Still for that read-out and setting: under 6mer-2-652 (RTTMRK) stands 16 Ru; under 6mer-2-653 (KIEMKR), 20 Ru.
Regarding 6mer-2-654 (RMPEKR), the Binding affinity (6mer-2 Bottom sequence) amounted to 20 Ru.
Turning to 6mer-2-655 (KIWFRR), where the note is “6mer-2 Bottom sequence”, the Binding affinity is 31 Ru.
Regarding 6mer-2-656 (KADPRR), under “6mer-2 Bottom sequence”, the Binding affinity turned out to be 11 Ru.
The same measure, in the same setting: under 6mer-2-657 (RKHERK) stands 32 Ru; under 6mer-2-658 (RYWVKK), 23 Ru; under 6mer-2-659 (KIPNKR), 22 Ru.
With 6mer-2-660 (RHKDRK), for the setting “6mer-2 Bottom sequence”, the Binding affinity turned out to be 16 Ru.
With 6mer-2-661 (RMKAKK), the Binding affinity (6mer-2 Bottom sequence) was 29 Ru.
For 6mer-2-662 (KAHPKK), for the setting “6mer-2 Bottom sequence”, the Binding affinity turned out to be 11 Ru.
Regarding 6mer-2-663 (KFAGRR), the Binding affinity (6mer-2 Bottom sequence) was found to be 24 Ru.
As for 6mer-2-664 (KCCWKK), the Binding affinity (6mer-2 Bottom sequence) is 11 Ru.
For the substance 6mer-2-665 (KCAERR), the Binding affinity (6mer-2 Bottom sequence) is 18 Ru.
The same measure, in the same setting: under 6mer-2-666 (KPMDRR) stands 25 Ru; under 6mer-2-667 (KHDMRR), 25 Ru.
Still for that read-out and setting: under 6mer-2-668 (RFCNKK) stands 13 Ru; under 6mer-2-669 (KNMWRK), 15 Ru; under 6mer-2-670 (RKWHKR), 33 Ru.
For 6mer-2-671 (RDWIRR), the Binding affinity (6mer-2 Bottom sequence) worked out at 27 Ru.
Take 6mer-2-672 (KIDDRK): the Binding affinity (6mer-2 Bottom sequence) worked out at 20 Ru.
Still for that read-out and setting: under 6mer-2-673 (RFCGRK) stands 23 Ru; under 6mer-2-674 (KKWERK), 26 Ru.
Consider 6mer-2-675 (RMKWRK), for which the Binding affinity (6mer-2 Bottom sequence) stood at 14 Ru.
The same measure, in the same setting: to 6mer-2-676 (KCTAKK) belongs 14 Ru; to 6mer-2-677 (RENWKK), 28 Ru; to 6mer-2-678 (KEWWRR), 32 Ru.
For the substance 6mer-2-679 (RYSAKK), the Binding affinity (6mer-2 Bottom sequence) is on record as 20 Ru.
Take 6mer-2-680 (KNHGKR): the Binding affinity (6mer-2 Bottom sequence) is 15 Ru.
On to 6mer-2-681 (RDTWRR), for which, where the note is “6mer-2 Bottom sequence”, the Binding affinity stood at 33 Ru.
Still for that read-out and setting: under 6mer-2-682 (RNMERR) stands 33 Ru; under 6mer-2-683 (KTEIRK), 33 Ru; under 6mer-2-684 (RYTMKK), 14 Ru.
The same measure, in the same setting: under 6mer-2-685 (KFHNRK) stands 15 Ru; under 6mer-2-686 (KTWEKK), 21 Ru; under 6mer-2-687 (KADGRK), 16 Ru.
Take 6mer-2-688 (RPMFRK): the Binding affinity (6mer-2 Bottom sequence) is 13 Ru.
Still for that read-out and setting: under 6mer-2-689 (RDKERR) stands 24 Ru; under 6mer-2-690 (KFTMRK), 13 Ru.
In the case of 6mer-2-691 (RHKMRK), the Binding affinity (6mer-2 Bottom sequence) worked out at 15 Ru.
Turning to 6mer-2-692 (KYTNRR), the Binding affinity (6mer-2 Bottom sequence) was found to be 29 Ru.
Turning to 6mer-2-693 (KNTIRR), for the setting “6mer-2 Bottom sequence”, the Binding affinity is on record as 16 Ru.
Consider 6mer-2-694 (KDSIRK), for which the Binding affinity (6mer-2 Bottom sequence) is listed as 22 Ru.
With 6mer-2-695 (KCWWRR), for the setting “6mer-2 Bottom sequence”, the Binding affinity was 28 Ru.
On the same count and under the same terms, under 6mer-2-696 (KFTKKK) stands 20 Ru.
Same read-out and setting: to 6mer-2-697 (KCAVKK) belongs 19 Ru; to 6mer-2-698 (KCEDKK), 27 Ru; to 6mer-2-699 (KNAGKR), 23 Ru.
Turning to 6mer-2-700 (RPWHKK), under “6mer-2 Bottom sequence”, the Binding affinity was found to be 15 Ru.
Same read-out and setting: under 6mer-2-701 (KTWAKR) stands 23 Ru; under 6mer-2-702 (KEMIKR), 18 Ru; under 6mer-2-703 (RTMHKR), 14 Ru.
Same read-out and setting: under 6mer-2-704 (KDWHRK) stands 20 Ru.
6mer-2-705 (RENFKK): the Binding affinity (6mer-2 Bottom sequence) is on record as 11 Ru.
Same read-out and setting: to 6mer-2-706 (KFTDRK) belongs 23 Ru; to 6mer-2-707 (RTWKRK), 21 Ru; to 6mer-2-708 (RAWVKK), 29 Ru.
On to 6mer-2-709 (RIWPKR), for which the Binding affinity (6mer-2 Bottom sequence) is 31 Ru.
Still for that read-out and setting: under 6mer-2-710 (RNKKKK) stands 14 Ru.
In the case of 6mer-2-711 (KECGRR), for the setting “6mer-2 Bottom sequence”, the Binding affinity amounted to 29 Ru.
In the case of 6mer-2-712 (KIPHRR), for the setting “6mer-2 Bottom sequence”, the Binding affinity came out at 29 Ru.
Same read-out and setting: to 6mer-2-713 (RASWRR) belongs 24 Ru; to 6mer-2-714 (KIDVRK), 30 Ru.
Still for that read-out and setting: under 6mer-2-715 (RATHRK) stands 32 Ru.
As for 6mer-2-716 (RTWKKR), the Binding affinity (6mer-2 Bottom sequence) is recorded as 18 Ru.
6mer-2-717 (KCPGKR): the Binding affinity (6mer-2 Bottom sequence) is reported as 15 Ru.
On the same count and under the same terms, to 6mer-2-718 (KYTFKR) belongs 12 Ru; to 6mer-2-719 (KIKPRR), 29 Ru; to 6mer-2-720 (RATNRK), 29 Ru.
For 6mer-2-721 (RHSKKK), the Binding affinity (6mer-2 Bottom sequence) amounted to 26 Ru.
Consider 6mer-2-722 (RNEHRR), for which the Binding affinity (6mer-2 Bottom sequence) was determined as 21 Ru.
Consider 6mer-2-723 (KEDMKR), for which the Binding affinity (6mer-2 Bottom sequence) was determined as 23 Ru.
For 6mer-2-724 (KYTMKK), the Binding affinity (6mer-2 Bottom sequence) was 24 Ru.
In the case of 6mer-2-725 (KAHMKK), the Binding affinity (6mer-2 Bottom sequence) worked out at 25 Ru.
As for 6mer-2-726 (KHHKKK), under “6mer-2 Bottom sequence”, the Binding affinity turned out to be 25 Ru.
On to 6mer-2-727 (RDMIKR), for which the Binding affinity (6mer-2 Bottom sequence) is on record as 11 Ru.
The same measure, in the same setting: under 6mer-2-728 (RMTMKK) stands 23 Ru; under 6mer-2-729 (RCPDKR), 30 Ru.
For the substance 6mer-2-730 (RNTHKR), the Binding affinity (6mer-2 Bottom sequence) is 26 Ru.
Take 6mer-2-731 (KASWKK): the Binding affinity (6mer-2 Bottom sequence) was 19 Ru.
